Experimental data: US20120258090

How the values were obtained:
[1] = molecular target: fully carboxylated recombinant human prothrombin, P00734
[2] = molecular target: incompletely carboxylated recombinant human prothrombin, P00734

B1: recombinant ecarin (activated, in CHO-S culture supernatant) (protein)
chain: VPPHERKFEKKFIELVVVVDHSMVTKYNNDSTAIRTWIYEMLNTVNEIYLPFNIRVALVGLEFWCNGDLINVTSTADDTLHSFGEWRASDLLNRKRHDHAQLLTNVTLDHSTLGITFVYGMCKSDRSVELILDYSNITFNMAYIIAHEMGHSLGMLHDTKFCTCGAKPCIMFGKESIPPPKEFSSCSYDQYNKYLLKYNPKCILDPPLRKDIASPAVCGNEIWEEGEECDCGSPADCRNPCCDAATCKLKPGAECGNGECCDKCKIRKAGTECRPARDDCDVAEHCTGQSAECPRNEFQRNGQPCLNNSGYCYNGDCPIMLNQCIALFSPSATVAQDSCFQRNLQGSYYGYCTKEIGYYGKRFPCAPQDVKCGRLYCLDNSFKKNMRCKNDYSYADENKGIVEPGTKCEDGKVCINRKCVDVNTAY
activation of prothrombin [1]: the recombinant ecarin is able to efficiently activate both the fully carboxylated and the incompletely carboxylated prothrombins | activation of prothrombin [2]: the recombinant ecarin is able to efficiently activate both the fully carboxylated and the incompletely carboxylated prothrombins
